Biological target: T1, CD3ε homodimer protein (human, UniProt P07766 23-126, limits assumed, sulfo-tag or biotin label in the ECL assays; amine-coupled to the chip in SPR)
T1 construct: also called human CD3ε homodimer protein; CD3 (CD3ε)
Test: SPR Biacore T200; CD3ε homodimer on CM4 chip;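 also: Single-residue variant antibodies injected as analyte over CD3ε homodimer immobilized by amine coupling, run at 25 °C in HBS-EP+ buffer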

T1 sequence (P07766 23-126 limits assumed): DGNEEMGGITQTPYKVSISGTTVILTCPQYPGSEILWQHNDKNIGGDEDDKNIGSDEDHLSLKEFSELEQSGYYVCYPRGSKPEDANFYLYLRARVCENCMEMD

ratio of amounts bound Z=Y/X (altered form / CE115HA000) | Binder
0.27 | CE115HA000 Q50D one-arm antibody (antibody, human IgG1, kappa, L234A L235A, N297A, name in Kabat numbering) heavy: QVQLVESGGGVVQPGRSLRLSCAASGFTFSNAWMHWVRQAPGKGLEWVADIKAKSNNYATYYAESVKGRFTISRDDSKNSLYLQMNSLKTEDTAVYYCRYVHYGAYYGVDAWGQGTTVTVSSASTKGPSVFPLAPSSKSTSGGTAALGCLVKDYFPEPVTVSWNSGALTSGVHTFPAVLQSSGLYSLSSVVTVPSSSLGTQTYICNVNHKPSNTKVDKKVEPKSCDKTHTCPPCPAPEAAGGPSVFLFPPKPKDTLMISRTPEVTCVVVDVSHEDPEVKFNWYVDGVEVHNAKTKPREEQYASTYRVVSVLTVLHQDWLNGKEYKCKVSNKALPAPIEKTISKAKGQPREPQVYTLPPSRCELTKNQVSLSCAVKGFYPSDIAVEWESNGQPENNYKTTPPVLDSDGSFFLVSKLTVDKSRWQQGNVFSCSVMHEALHNHYTQKSLSLSPDYKDDDDK EPKSSDKTHTCPPCPAPELLGGPSVFLFPPKPKDTLMISRTPEVTCVVVDVSHEDPEVKFNWYVDGVEVHNAKTKPREEQYNSTYRVVSVLTVLHQDWLNGKEYKCKVSNKALPAPIEKTISKAKGQPREPQVCTLPPSRDELTKNQVSLWCLVKGFYPSDIAVEWESNGQPENNYKTTPPVLDSDGSFFLYSKLTVDKSRWQQGNVFSCSVMHEALHNRYTQKSLSLSP light: DIVMTQSPLSLPVTPGEPASISCRSSQSLVHSNRNTYLHWYQQKPGQAPRLLIYKVSNRFSGVPDRFSGSGSGTDFTLKISRVEAEDVGVYYCGQGTQVPYTFGQGTKLEIKRTVAAPSVFIFPPSDEQLKSGTASVVCLLNNFYPREAKVQWKVDNALQSGNSQESVTEQDSKDSTYSLSSTLTLSKADYEKHKVYACEVTHQGLSSPVTKSFNRGEC
0.26 | CE115HA000 Q50E one-arm antibody (antibody, human IgG1, kappa, L234A L235A, N297A, name in Kabat numbering) heavy: QVQLVESGGGVVQPGRSLRLSCAASGFTFSNAWMHWVRQAPGKGLEWVAEIKAKSNNYATYYAESVKGRFTISRDDSKNSLYLQMNSLKTEDTAVYYCRYVHYGAYYGVDAWGQGTTVTVSSASTKGPSVFPLAPSSKSTSGGTAALGCLVKDYFPEPVTVSWNSGALTSGVHTFPAVLQSSGLYSLSSVVTVPSSSLGTQTYICNVNHKPSNTKVDKKVEPKSCDKTHTCPPCPAPEAAGGPSVFLFPPKPKDTLMISRTPEVTCVVVDVSHEDPEVKFNWYVDGVEVHNAKTKPREEQYASTYRVVSVLTVLHQDWLNGKEYKCKVSNKALPAPIEKTISKAKGQPREPQVYTLPPSRCELTKNQVSLSCAVKGFYPSDIAVEWESNGQPENNYKTTPPVLDSDGSFFLVSKLTVDKSRWQQGNVFSCSVMHEALHNHYTQKSLSLSPDYKDDDDK EPKSSDKTHTCPPCPAPELLGGPSVFLFPPKPKDTLMISRTPEVTCVVVDVSHEDPEVKFNWYVDGVEVHNAKTKPREEQYNSTYRVVSVLTVLHQDWLNGKEYKCKVSNKALPAPIEKTISKAKGQPREPQVCTLPPSRDELTKNQVSLWCLVKGFYPSDIAVEWESNGQPENNYKTTPPVLDSDGSFFLYSKLTVDKSRWQQGNVFSCSVMHEALHNRYTQKSLSLSP light: DIVMTQSPLSLPVTPGEPASISCRSSQSLVHSNRNTYLHWYQQKPGQAPRLLIYKVSNRFSGVPDRFSGSGSGTDFTLKISRVEAEDVGVYYCGQGTQVPYTFGQGTKLEIKRTVAAPSVFIFPPSDEQLKSGTASVVCLLNNFYPREAKVQWKVDNALQSGNSQESVTEQDSKDSTYSLSSTLTLSKADYEKHKVYACEVTHQGLSSPVTKSFNRGEC
0.33 | CE115HA000 Q50K one-arm antibody (antibody, human IgG1, kappa, L234A L235A, N297A, name in Kabat numbering) heavy: QVQLVESGGGVVQPGRSLRLSCAASGFTFSNAWMHWVRQAPGKGLEWVAKIKAKSNNYATYYAESVKGRFTISRDDSKNSLYLQMNSLKTEDTAVYYCRYVHYGAYYGVDAWGQGTTVTVSSASTKGPSVFPLAPSSKSTSGGTAALGCLVKDYFPEPVTVSWNSGALTSGVHTFPAVLQSSGLYSLSSVVTVPSSSLGTQTYICNVNHKPSNTKVDKKVEPKSCDKTHTCPPCPAPEAAGGPSVFLFPPKPKDTLMISRTPEVTCVVVDVSHEDPEVKFNWYVDGVEVHNAKTKPREEQYASTYRVVSVLTVLHQDWLNGKEYKCKVSNKALPAPIEKTISKAKGQPREPQVYTLPPSRCELTKNQVSLSCAVKGFYPSDIAVEWESNGQPENNYKTTPPVLDSDGSFFLVSKLTVDKSRWQQGNVFSCSVMHEALHNHYTQKSLSLSPDYKDDDDK EPKSSDKTHTCPPCPAPELLGGPSVFLFPPKPKDTLMISRTPEVTCVVVDVSHEDPEVKFNWYVDGVEVHNAKTKPREEQYNSTYRVVSVLTVLHQDWLNGKEYKCKVSNKALPAPIEKTISKAKGQPREPQVCTLPPSRDELTKNQVSLWCLVKGFYPSDIAVEWESNGQPENNYKTTPPVLDSDGSFFLYSKLTVDKSRWQQGNVFSCSVMHEALHNRYTQKSLSLSP light: DIVMTQSPLSLPVTPGEPASISCRSSQSLVHSNRNTYLHWYQQKPGQAPRLLIYKVSNRFSGVPDRFSGSGSGTDFTLKISRVEAEDVGVYYCGQGTQVPYTFGQGTKLEIKRTVAAPSVFIFPPSDEQLKSGTASVVCLLNNFYPREAKVQWKVDNALQSGNSQESVTEQDSKDSTYSLSSTLTLSKADYEKHKVYACEVTHQGLSSPVTKSFNRGEC
0.23 | CE115HA000 Q50L one-arm antibody (antibody, human IgG1, kappa, L234A L235A, N297A, name in Kabat numbering) heavy: QVQLVESGGGVVQPGRSLRLSCAASGFTFSNAWMHWVRQAPGKGLEWVALIKAKSNNYATYYAESVKGRFTISRDDSKNSLYLQMNSLKTEDTAVYYCRYVHYGAYYGVDAWGQGTTVTVSSASTKGPSVFPLAPSSKSTSGGTAALGCLVKDYFPEPVTVSWNSGALTSGVHTFPAVLQSSGLYSLSSVVTVPSSSLGTQTYICNVNHKPSNTKVDKKVEPKSCDKTHTCPPCPAPEAAGGPSVFLFPPKPKDTLMISRTPEVTCVVVDVSHEDPEVKFNWYVDGVEVHNAKTKPREEQYASTYRVVSVLTVLHQDWLNGKEYKCKVSNKALPAPIEKTISKAKGQPREPQVYTLPPSRCELTKNQVSLSCAVKGFYPSDIAVEWESNGQPENNYKTTPPVLDSDGSFFLVSKLTVDKSRWQQGNVFSCSVMHEALHNHYTQKSLSLSPDYKDDDDK EPKSSDKTHTCPPCPAPELLGGPSVFLFPPKPKDTLMISRTPEVTCVVVDVSHEDPEVKFNWYVDGVEVHNAKTKPREEQYNSTYRVVSVLTVLHQDWLNGKEYKCKVSNKALPAPIEKTISKAKGQPREPQVCTLPPSRDELTKNQVSLWCLVKGFYPSDIAVEWESNGQPENNYKTTPPVLDSDGSFFLYSKLTVDKSRWQQGNVFSCSVMHEALHNRYTQKSLSLSP light: DIVMTQSPLSLPVTPGEPASISCRSSQSLVHSNRNTYLHWYQQKPGQAPRLLIYKVSNRFSGVPDRFSGSGSGTDFTLKISRVEAEDVGVYYCGQGTQVPYTFGQGTKLEIKRTVAAPSVFIFPPSDEQLKSGTASVVCLLNNFYPREAKVQWKVDNALQSGNSQESVTEQDSKDSTYSLSSTLTLSKADYEKHKVYACEVTHQGLSSPVTKSFNRGEC
0.4 | CE115HA000 Q50I one-arm antibody (antibody, human IgG1, kappa, L234A L235A, N297A, name in Kabat numbering) heavy: QVQLVESGGGVVQPGRSLRLSCAASGFTFSNAWMHWVRQAPGKGLEWVAIIKAKSNNYATYYAESVKGRFTISRDDSKNSLYLQMNSLKTEDTAVYYCRYVHYGAYYGVDAWGQGTTVTVSSASTKGPSVFPLAPSSKSTSGGTAALGCLVKDYFPEPVTVSWNSGALTSGVHTFPAVLQSSGLYSLSSVVTVPSSSLGTQTYICNVNHKPSNTKVDKKVEPKSCDKTHTCPPCPAPEAAGGPSVFLFPPKPKDTLMISRTPEVTCVVVDVSHEDPEVKFNWYVDGVEVHNAKTKPREEQYASTYRVVSVLTVLHQDWLNGKEYKCKVSNKALPAPIEKTISKAKGQPREPQVYTLPPSRCELTKNQVSLSCAVKGFYPSDIAVEWESNGQPENNYKTTPPVLDSDGSFFLVSKLTVDKSRWQQGNVFSCSVMHEALHNHYTQKSLSLSPDYKDDDDK EPKSSDKTHTCPPCPAPELLGGPSVFLFPPKPKDTLMISRTPEVTCVVVDVSHEDPEVKFNWYVDGVEVHNAKTKPREEQYNSTYRVVSVLTVLHQDWLNGKEYKCKVSNKALPAPIEKTISKAKGQPREPQVCTLPPSRDELTKNQVSLWCLVKGFYPSDIAVEWESNGQPENNYKTTPPVLDSDGSFFLYSKLTVDKSRWQQGNVFSCSVMHEALHNRYTQKSLSLSP light: DIVMTQSPLSLPVTPGEPASISCRSSQSLVHSNRNTYLHWYQQKPGQAPRLLIYKVSNRFSGVPDRFSGSGSGTDFTLKISRVEAEDVGVYYCGQGTQVPYTFGQGTKLEIKRTVAAPSVFIFPPSDEQLKSGTASVVCLLNNFYPREAKVQWKVDNALQSGNSQESVTEQDSKDSTYSLSSTLTLSKADYEKHKVYACEVTHQGLSSPVTKSFNRGEC
0.24 | CE115HA000 Q50S one-arm antibody (antibody, human IgG1, kappa, L234A L235A, N297A, name in Kabat numbering) heavy: QVQLVESGGGVVQPGRSLRLSCAASGFTFSNAWMHWVRQAPGKGLEWVASIKAKSNNYATYYAESVKGRFTISRDDSKNSLYLQMNSLKTEDTAVYYCRYVHYGAYYGVDAWGQGTTVTVSSASTKGPSVFPLAPSSKSTSGGTAALGCLVKDYFPEPVTVSWNSGALTSGVHTFPAVLQSSGLYSLSSVVTVPSSSLGTQTYICNVNHKPSNTKVDKKVEPKSCDKTHTCPPCPAPEAAGGPSVFLFPPKPKDTLMISRTPEVTCVVVDVSHEDPEVKFNWYVDGVEVHNAKTKPREEQYASTYRVVSVLTVLHQDWLNGKEYKCKVSNKALPAPIEKTISKAKGQPREPQVYTLPPSRCELTKNQVSLSCAVKGFYPSDIAVEWESNGQPENNYKTTPPVLDSDGSFFLVSKLTVDKSRWQQGNVFSCSVMHEALHNHYTQKSLSLSPDYKDDDDK EPKSSDKTHTCPPCPAPELLGGPSVFLFPPKPKDTLMISRTPEVTCVVVDVSHEDPEVKFNWYVDGVEVHNAKTKPREEQYNSTYRVVSVLTVLHQDWLNGKEYKCKVSNKALPAPIEKTISKAKGQPREPQVCTLPPSRDELTKNQVSLWCLVKGFYPSDIAVEWESNGQPENNYKTTPPVLDSDGSFFLYSKLTVDKSRWQQGNVFSCSVMHEALHNRYTQKSLSLSP light: DIVMTQSPLSLPVTPGEPASISCRSSQSLVHSNRNTYLHWYQQKPGQAPRLLIYKVSNRFSGVPDRFSGSGSGTDFTLKISRVEAEDVGVYYCGQGTQVPYTFGQGTKLEIKRTVAAPSVFIFPPSDEQLKSGTASVVCLLNNFYPREAKVQWKVDNALQSGNSQESVTEQDSKDSTYSLSSTLTLSKADYEKHKVYACEVTHQGLSSPVTKSFNRGEC

Source: patent US20260049138A1 (Chugai, published 2026)
